According to patent US20240400689A1 (ANTENGENE BIOLOGICS, published 2024):
Positions count from the first letter of the chain named.

T1: human CD276 protein (human, UniProt Q5ZPR3 29-534)
T1 construct: whole, on cells; for SKOV3 and the other cancer lines the protein is the cells' own; also called B7-H3; B7H3
T1 sequence (looked up): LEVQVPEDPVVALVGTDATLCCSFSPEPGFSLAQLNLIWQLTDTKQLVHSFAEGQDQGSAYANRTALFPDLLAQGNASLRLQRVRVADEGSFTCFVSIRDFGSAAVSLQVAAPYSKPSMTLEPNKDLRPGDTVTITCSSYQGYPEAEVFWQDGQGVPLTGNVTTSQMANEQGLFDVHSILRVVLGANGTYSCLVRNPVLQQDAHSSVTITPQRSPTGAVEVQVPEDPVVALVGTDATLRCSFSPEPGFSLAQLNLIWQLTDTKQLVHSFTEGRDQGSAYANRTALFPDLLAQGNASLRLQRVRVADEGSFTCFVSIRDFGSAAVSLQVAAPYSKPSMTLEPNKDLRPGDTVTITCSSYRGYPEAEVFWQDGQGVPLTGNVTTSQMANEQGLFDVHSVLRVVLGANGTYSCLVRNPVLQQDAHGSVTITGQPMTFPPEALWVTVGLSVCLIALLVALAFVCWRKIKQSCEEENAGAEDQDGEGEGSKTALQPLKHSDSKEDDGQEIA

T2: mouse CD276 protein (mouse, UniProt Q8VE98 29-316)
T2 construct: whole, on cells; also called mCD276; CHO-S-mCD276
T2 sequence (looked up): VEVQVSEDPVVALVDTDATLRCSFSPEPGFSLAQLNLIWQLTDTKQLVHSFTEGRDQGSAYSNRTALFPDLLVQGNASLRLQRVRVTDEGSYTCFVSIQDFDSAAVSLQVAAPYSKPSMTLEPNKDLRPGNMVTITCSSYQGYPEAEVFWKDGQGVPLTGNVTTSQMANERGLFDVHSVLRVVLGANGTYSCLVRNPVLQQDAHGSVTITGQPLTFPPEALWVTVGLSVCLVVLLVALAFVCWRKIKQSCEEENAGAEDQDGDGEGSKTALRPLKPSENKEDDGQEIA

B1: 6-H11-G5-D8 (human IgG1 chimeric antibody) (antibody, V domains shown)
VH: EVQLQESGPELVKPGTSVKLSCKASGYTFTSYDINWVRQRPEQGLEWIGWIFPGNGDTYYNEKFKGKATLTSDKSSSTAYMQLSRLTSEDSAVYFCARDLRLGTFDYWGQGTTLTVSS
VL: QIVLTQSPEIMSASPGEKVTMTCSASSSVSYIHWYQQKSGTSPKRWIYDTSKLASGVPARFSGSGSGTSYSLTIRSMEAEDAATYYCQQGSSNPRTFGGGTKLELK
notes: human IgG1 chimeric antibody of the mouse clone
B2: 13-E4-G9-A4 (antibody, V domains shown)
VH: EVMLVESGGGLVKPGGSLKFSCAASGFTFITYAMSWVRQTPEKRLEWVATISGGGIDTYYPDSVKGRFTISRDNAKNTLYLQVNSLRSEDTAMYYCTRQGSQGWGAMDYWGQGTSVTVSS
VL: QIVLTQSPPIMSASPGERVTMTCRASSRVSFMHWYQQKSGTSPRRWIYETSKLASGVPDRFSGSVSGTSYSLTISSMEAEDAATYYCQQWSSNPLTFGAGTKLELK
notes: mouse monoclonal antibody (hybridoma)
B3: 25-C8-D7-C5 (antibody, V domains shown)
VH: B2 VH with M3Q, V5Q, I30S, V83M, T97A, Q102K
VL: B2 VL with P9A, R18K, R28S, R44K, V65G
notes: as for B2
B4: 30-C7-C11-D4 (antibody, V domains shown)
VH: EVQLVESGPGLVKPSQSLSLTCTVTGYSITSDYAWNWIRQFPGNKLEWMGYISHSGSTSYNPSLKSRISITRDTSKNQFFLQLNSVTTEDTATYYCARSLGRRWYFDVWGAGTTVTVSS
VL: DIVMTQSPSSLAMSVGQKVTLSCKSSQSLLNSSTQKNYLAWYQQKPGQSPKLLVYFASTRDSGVPDRFIGSGSGTEFTLTISSVQAEDLADYFCQQHYIIPFTFGAGTKLEIK
notes: as for B2
B5: 10-G6-C4-B2 (antibody, V domains shown)
VH: EVQLVESGGGLVQPGGSLRLSCATSGFTLSDYYMSWVRQPPGKAPEWLGFMRNKANGYTTEYSASVRGRFTISRDTSQSIIYLQMNTLRAEDGATYYCVRDRDGRPFAYWGQGTLVTVSA
VL: DIVMTQSPSSLTVTAGEKVTMSCKSSQSLLNSINQKNFLTWYQQKPGQPPKLLIYWASTRESGVPDRFTGSGSGTDFTLTISSVQAEDLAIYYCQNDYTYPLTFGTGTKLELK
notes: as for B2
B6: 15-G1-D1-E3 (antibody, V domains shown)
VH: QVQLQQPGAELVKPGTSVKLSCKASGYTFTSYWIHWVKQRPGQGLEWIGMIHPKSGTVDYNEKFKSKATLTADKSSNTAYMQLSSLTSEASVVYYCARGENYDYRPQFVYWGQGTLVTVSA
VL: QLVLTQSSSASFSLGASAKLTCTLSSQHSTYTIEWYQQQPLKPPKYVMELKKDGSHRTGDGIPDRFSGSSSGADRYLSISNIQPEDEAIYICGVGDTIKEQFVYVFGGGTKVTVL
notes: as for B2
B7: 8-B4-F5-E11 (antibody, V domains shown)
VH: QVQLQQPGAELVKPGASVKLSCKASGDTFTSYWMHWVKQRPGQGLEWIGMIHPDSGTRNYNEKVMSKATLNVDKSSSTAYLHLSSLTSEDSAVYYCSRSYGSRLAWFAYWGQGTLVTVSA
VL: QAVVTQESALTTSPGETVTLTCRSSTGAVTTSNFANWVQEKPDHLFTGLIGGTNNRAPGVPARFSGSLIGDKAALTITGAQTEDEAVYFCALWYTNHFIFGSGTKVTVL
notes: as for B2
B8: 20-F8-B5-G2 (antibody, V domains shown)
VH: EVQLQESGPSLVKPSQTLSLTCSVTGDSITSAYWNWIRKFPGNKLEYMGYISNSGSTYYNPSLKSRISITRDTSKNQYYLQLNSVTTEDTGTYYCVRGERYYGYGAYWGQGTLVTVSA
VL: DIVMTQATPSVPVTPGESISISCRSSKSLLHSNGNTYLYWFLQRPGQSPQLLIYRMSNLASGVPDRFSGSGSGTAFTLRISRVEAEDVGVYYCMQHLEYPFTFGAGTKLELK
notes: as for B2
B9: 9-B9-H11-G7 (antibody, V domains shown)
VH: DVQLQESGPGLVKPSQSLSLTCSVTGYSITSGYYWNWIRQFPGNKLEWMVYISYDGTNNYNPSLKNRISITRDTSKNQFFLKLNSVTTEDTATYYCARGDSNSYYFDYWGQGTTLTVSS
VL: QAVVTQESALTTSPGGTVILTCRSSTGAVTTSNYANWVQEKPDHLFTGLIGGTSNRAPGVPVRFSGSLIGDKAALTITGAQTEDDAMYFCALWYRTHYVFGGGTKVTVL
notes: as for B2
B10: 9-G12-D6-A11 (antibody, V domains shown)
VH: B9 VH with E6V, T25A, G32D, V50G, N77G, L83F, D100K, S101D, N102G
VL: B9 VL with K105M
notes: as for B2
B11: 8-C3-E3-F3 (antibody, V domains shown)
VH: EVQLVESGGGLVQPGGSLKLSCAASGFTFSNYGLSWVRLTPDKRLEVVATIGSYGGNTYYPDSVKGRFTISRDNAKNTLYLQMSSLKSEDTAIYYCARDIYYGNSEAWFAYWGQGTLVTVSA
VL: DIVMTQAAFSNPVTLGTSASISCRSSKSLLHSNGITYLYWYLQKPGQSPQLLIYQMSNLASGVPDRFSSSGSETDFTLRISRVEAEDVGVYYCAQNLELPWTFGGGTKLEIK
notes: as for B2
B12: 30-E2-G7-G7 (antibody, V domains shown)
VH: EVQLQESGGGLVKPGGSLKLSCAASGFTFSYYAMSWVRQTPEKRLEWVATINGDGSHTYYPDSVRGRFTISRDNAKNTLYLQVSSLRSEDTAMYYCASLLQLGPFWGQGTTLTVSS
VL: DIVMTQSQKFMSTSVGDRVSVTCKASQNVGTNVAWYHQRPGQSPKPLIYSASYRYSGVPDRFTGSGSGTDFTLTISNVQSEDLAEYFCQQYNNYPLTFGSGTKLEIK
notes: as for B2
B13: 20-C5-D7-D3 (antibody, V domains shown)
VH: EVQLVESGGDLVKPGGSLKLSCAASGFTFRSYGMSWVRQTPDKRLEWVATISGGGNYTYYPDSVKGRFTISRDNAKNTLYLQMSSLKSEDTAMYYCARHEGLPLDYWGQGTTLTVSS
VL: DIQMTQSPASLSASVGETVTITCRASENIYSYLAWYQQKQGKSPQLLVYNAKTLAEGVPSRFSGSGSGTQFSLKINSLQPEDFGNFYCQHHYGTPTWTFGGGTKLEIK
notes: as for B2
B14: 4-D5-B9-B11 (antibody, V domains shown)
VH: EIGGLVKPGGSLKFSCAASGFTFSSYAMSWVRQTPEKRLEWVATISGGGIYYPDSVKGRFTISRDNAKNTLYLQMSSLRSEDTAMYYCARQGSKGWDAMDYWGQGTSVTVSS
VL: B2 VL with P9A, R18K, R28S, R44K, V65G
notes: as for B2
B15: 10-B9-D10-A12 (antibody, V domains shown)
VH: EVQLQESGPELVRPGVSVKISCKGSGYTFTDYTMHWVKLSHAKSLEWIGVISTYYGNTNYNQKFKGKATLTVDKSSSTAYMELARLTSEDSAIYYCARASYGSGYGPYYWYFDVWGAGTTVTVSS
VL: DIQMTQSPASLFASVGETVTITCRASEKIYSYLAWYFQKQGKSPQFLVYNANALAEGVPSRFSGSGSGTQFSLKINSLQPEDFGTYYCQHHYGTPVTFGAGSKLELK
notes: as for B2

These binders were tested against T1, human CD276 protein (assay: FACS on SKOV3 cells).
Text: Sequences of 31 mouse antibodies from Table 5 were selected to generate and produce human IgG1 chimeric antibodies. The binding affinity of these antibodies and bench mark antibody, Enoblituzumab (see U.S. Pat. No. 8,802,091, MGA271, specifically with a construct designated as hBRCA84D-2) and MGC018 (an antibody-drug-conjugate, in which the mAb MGA017 (human IgG1) is conjugated via a cleavable linker to the prodrug seco-DUocarmycin hydroxyBenzamide Azaindole (DUBA), an alkylating agent that can damage DNA in both dividing and non-dividing cells, thereby causing cell death) with human patient derived ovarian cancer cell line, SKOV3, was determined by FACS analysis.
1. Digested cells using Trypsin (1×); Centrifuged the harvested cells at 300 g for 3 min and discarding the supernatant. […] 2. Washed the cells 2 times with FACS buffer by centrifuging at 300 g for 3 min and discarding the supernatant. [0445] 3. […] Kept the cells in dark for FACS analysis.

Binder	EC50 [µg/mL]	MFI (Max)
B1	1.78	200

The binders below were run against T1, human CD276 protein (assay: FACS on CHO-S-hCD276 cells).
Procedure: (§1) Screening & Expansion—The subcloning plates were screened by protein or cell-based Elisa, and the subclones with good binding ability were expanded to 24-wells for confirmation tests. The specificity and cross-reactivity of these subclones were confirmed with FACS analysis. Briefly, parental CHO-S cells, CHO-S-hCD276, CHO-S cell line stably over-expressing Macaca fascicularis CD276, CHO-K1 S, cell line stably over-expressing mouse CD276 were incubated with antibodies produced by each subclone respectively. Fluorescent dye-conjugated secondary antibody was used to detect the binding of the primary antibody with the cells. Median fluorescence intensity was measured by FACS analysis.

Binder	FACS MFI
B2	149000
B3	148000
B4	138000
B5	5650
B6	62500
B7	40400
B8	88800
B9	96800
B10	53200
B11	63900
B12	47000
B13	77000
B14	145000
B15	400000

The binders below were run against T2, mouse CD276 protein (assay: FACS on CHO-S-mCD276 cells).
Procedure: as §1

Binder	FACS MFI
B2	1370
B3	1160
B4	8220
B5	17400
B6	6610
B7	7370
B8	67000
B9	1360
B10	1420
B11	1320
B12	1300
B13	1340
B14	2100

Each binder was assayed against T3, Macaca fascicularis CD276 (Macaca fascicularis) (assay: FACS on CHO-S-cynoCD276 cells).
T3 construct: whole, on cells; also called cynomolgus monkey CD276; cynoCD276
Procedure: as §1

Binder	FACS MFI
B2	16800
B3	39100
B4	96300
B5	4320
B6	99400
B7	58600
B8	51100
B9	146000
B10	35700
B11	12100
B12	35100
B13	13200
B14	148000
B15	10100
